Assay [1] concerns the target hepatocyte growth factor (HGF) (UniProt P14210). As to the kind of experiment: cell-based or functional assay.
Assay [2] deals with Met on MDCK II cells (Madin-Darby canine kidney) (canine (cell line MDCK II)) (UniProt Q75ZY9). The experiment in a line: cell-based or functional assay.

From US20090036374A1 come the findings set out here.

Some results are limits rather than exact numbers.

In assay [1], “Met-877 His tag protein (Met-877 splice variant with C-terminal Strep II and 8xHis tags) (from UniProt P08581 25-861) (receptor)” came in with an amount of inhibitory protein that gave roughly 50% inhibition of scattering, HGF ~5-7 ng/ml, MDCK and HT115 of 0.1 to 1 µg/mL; an inhibition of HGF-induced Met tyrosine phosphorylation, A431 or A549 cells, 100 µg/ml Met-877, 10 ng/ml HGF of 70%; an inhibition of Met tyrosine phosphorylation, NCI-H441 cells (constitutive phosphorylation), 100 µg/ml Met-877, 10 ng/ml HGF of 40%; a scattering score, HT115, inhibitor 1 µg/ml, HGF 7 ng/ml of 1 score 1-5. Moreover, in assay [1], the scattering score, HT115, inhibitor 5 µg/ml, HGF 7 ng/ml was 1 score 1-5; the scattering score, HT115, inhibitor 10 µg/ml, HGF 7 ng/ml worked out at 1 score 1-5; the scattering score, HT115, inhibitor 10 µg/ml, HGF 50 ng/ml amounted to 3 score 1-5; the scattering score, HT115, inhibitor 100 µg/ml, HGF 50 ng/ml was determined as 1 score 1-5. In assay [1], this substance displayed a scattering score, MDCK, inhibitor 0.1 µg/ml, HGF 5 ng/ml of 5 score 1-5; a scattering score, MDCK, inhibitor 30 µg/ml, HGF 50 ng/ml of 4 score 1-5; a scattering score, MDCK, inhibitor 100 µg/ml, HGF 50 ng/ml of 3 score 1-5.

As for “Met-877-Fc (Met-877 splice variant fused to human IgG1 Fc) (Fc fusion)”, in assay [1], the amount of inhibitory protein that gave roughly 50% inhibition of scattering, HGF ~5-7 ng/ml, MDCK and HT115 is 0.1 to 1 µg/mL; the inhibition of HGF-induced Met phosphorylation, A549 and MDA-MB-231 cells, doses higher than 3-10 nM was greater than 90%; the inhibition of HGF-induced phosphorylation of Met Y1230/4/5, MDA-MB-231 cells, 3 nM variant is greater than 60%; the inhibition of HGF-induced proliferation of AsPC-1 cells (BrdU incorporation), 10 ng/ml HGF, 877-Fc at 100 and 300 nM worked out at 90%. In assay [1], this substance yielded an inhibition of HGF-induced urokinase upregulation, MDCK II, 10 ng/ml HGF, 3 nM variant of 60 to 80%; an inhibition of HGF-induced urokinase upregulation, MDCK II, 10 ng/ml HGF, 10 nM variant of 80%; an inhibition of HGF-induced urokinase upregulation, MDCK II, 10 ng/ml HGF, doses higher than 10 nM greater than 95%; an inhibition of HGF-induced urokinase upregulation, MDCK II, 10 ng/ml HGF, variant at 50 nM or more greater than 95%. For the same substance, in assay [1], the scattering score, HT115, inhibitor 0.1 µg/ml, HGF 3 ng/ml turned out to be 2 score 1-5; the scattering score, HT115, inhibitor 0.1 µg/ml, HGF 5 ng/ml is 3 score 1-5; the scattering score, HT115, inhibitor 5 µg/ml, HGF 5 ng/ml turned out to be 1 score 1-5; the scattering score, HT115, inhibitor 5 µg/ml, HGF 7 ng/ml came out at 1 score 1-5. In assay [1], this substance gave a scattering score, HT115, inhibitor 10 µg/ml, HGF 1 ng/ml of 1 score 1-5; a scattering score, HT115, inhibitor 10 µg/ml, HGF 3 ng/ml of 1 score 1-5; a scattering score, HT115, inhibitor 10 µg/ml, HGF 5 ng/ml of 1 score 1-5; a scattering score, HT115, inhibitor 10 µg/ml, HGF 7 ng/ml of 1 score 1-5. Further, in assay [1], the scattering score, HT115, inhibitor 10 µg/ml, HGF 50 ng/ml came to 2 score 1-5; the scattering score, HT115, inhibitor 100 µg/ml, HGF 50 ng/ml came to 1 score 1-5; the scattering score, MDCK, inhibitor 0.1 µg/ml, HGF 7 ng/ml turned out to be 5 score 1-5; the scattering score, MDCK, inhibitor 1 µg/ml, HGF 1 ng/ml is 1 score 1-5. Further, in assay [1], the scattering score, MDCK, inhibitor 1 µg/ml, HGF 5 ng/ml came out at 3 score 1-5; the scattering score, MDCK, inhibitor 1 µg/ml, HGF 7 ng/ml worked out at 3 score 1-5; the scattering score, MDCK, inhibitor 1 µg/ml, HGF 10 ng/ml is 3 score 1-5; the scattering score, MDCK, inhibitor 5 µg/ml, HGF 10 ng/ml was 2 score 1-5. In assay [1], this substance had a scattering score, MDCK, inhibitor 10 µg/ml, HGF 1 ng/ml of 1 score 1-5; a scattering score, MDCK, inhibitor 10 µg/ml, HGF 5 ng/ml of 1 score 1-5; a scattering score, MDCK, inhibitor 10 µg/ml, HGF 7 ng/ml of 1 score 1-5; a scattering score, MDCK, inhibitor 10 µg/ml, HGF 10 ng/ml of 1 score 1-5. In assay [1], the scattering score, MDCK, inhibitor 10 µg/ml, HGF 30 ng/ml was 2 score 1-5; the scattering score, MDCK, inhibitor 30 µg/ml, HGF 10 ng/ml came out at 1 score 1-5; the scattering score, MDCK, inhibitor 30 µg/ml, HGF 30 ng/ml was 1 score 1-5; the scattering score, MDCK, inhibitor 30 µg/ml, HGF 100 ng/ml was 2 score 1-5. In addition, the scattering score, MDCK, inhibitor 100 µg/ml, HGF 100 ng/ml in assay [1] amounted to 1 score 1-5.

Regarding “Met-885-Fc (Met-885 splice variant fused to human IgG1 Fc) (Fc fusion)”, in assay [1], the amount of inhibitory protein that gave roughly 50% inhibition of scattering, HGF ~5-7 ng/ml, MDCK and HT115 lay in the range of 0.1 to 1 µg/mL; the inhibition of HGF-induced Met phosphorylation, A549 and MDA-MB-231 cells, doses higher than 3-10 nM is greater than 90%; the inhibition of HGF-induced phosphorylation of Met Y1230/4/5, MDA-MB-231 cells, 3 nM variant was greater than 60%; the inhibition of HGF-induced urokinase upregulation, MDCK II, 10 ng/ml HGF, 3 nM variant was 60 to 80%. Also, in assay [1], the inhibition of HGF-induced urokinase upregulation, MDCK II, 10 ng/ml HGF, doses higher than 10 nM is greater than 95%; the scattering score, HT115, inhibitor 1 µg/ml, HGF 7 ng/ml turned out to be 1 score 1-5; the scattering score, HT115, inhibitor 5 µg/ml, HGF 7 ng/ml amounted to 1 score 1-5; the scattering score, HT115, inhibitor 10 µg/ml, HGF 7 ng/ml was 1 score 1-5. In assay [1], this substance showed a scattering score, HT115, inhibitor 30 µg/ml, HGF 50 ng/ml of 2 score 1-5; a scattering score, MDCK, inhibitor 1 µg/ml, HGF 5 ng/ml of 2 score 1-5; a scattering score, MDCK, inhibitor 5 µg/ml, HGF 5 ng/ml of 2 score 1-5.

Regarding “Met-934-Fc (Met-934 splice variant fused to human IgG1 Fc) (Fc fusion)”, in assay [1], the amount of inhibitory protein that gave roughly 50% inhibition of scattering, HGF ~5-7 ng/ml, MDCK and HT115 was in the range of 0.1 to 1 µg/mL; the inhibition of HGF-induced Met phosphorylation, A549 and MDA-MB-231 cells, doses higher than 3-10 nM was greater than 90%; the inhibition of HGF-induced phosphorylation of Met Y1230/4/5, MDA-MB-231 cells, 3 nM variant is greater than 60%; the inhibition of HGF-induced urokinase upregulation, MDCK II, 10 ng/ml HGF, 3 nM variant was in the range of 60 to 80%. Also, in assay [1], the inhibition of HGF-induced urokinase upregulation, MDCK II, 10 ng/ml HGF, doses higher than 10 nM was greater than 95%; the scattering score, MDCK, inhibitor 10 µg/ml, HGF 50 ng/ml was 3 score 1-5; the scattering score, MDCK, inhibitor 10 µg/ml, HGF 100 ng/ml is 5 score 1-5; the scattering score, MDCK, inhibitor 30 µg/ml, HGF 50 ng/ml was 2 score 1-5. In addition, in assay [1], the scattering score, MDCK, inhibitor 100 µg/ml, HGF 100 ng/ml worked out at 1 score 1-5.

As for “hepatocyte growth factor (HGF) (from UniProt P14210 32-728) (ligand)”, the scattering score, MDCK, no inhibitor, HGF 5-100 ng/ml in assay [2] was determined as 5 score 1-5.
